Consider 1 molecule from publication PMC2063981 (The Journal of Cell Biology, 2007).

This assay addresses GST–Rab7 (wild type, loaded with GTP or GTPγS) (UniProt P51149 1-207). Kind of assay: pull-down.

Chain of GST–Rab7 (wild type, loaded with GTP or GTPγS) (P51149 whole entry): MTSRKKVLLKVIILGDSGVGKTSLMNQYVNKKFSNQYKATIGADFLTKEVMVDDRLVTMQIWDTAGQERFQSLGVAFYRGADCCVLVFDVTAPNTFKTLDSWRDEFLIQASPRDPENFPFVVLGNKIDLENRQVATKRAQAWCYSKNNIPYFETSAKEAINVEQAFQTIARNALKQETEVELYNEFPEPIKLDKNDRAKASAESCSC

B1: in vitro–translated 35S-labeled ORP1L (full length) (natural protein, human, UniProt Q9BXW6-1 1-950, looked up)
chain: MNTEAEQQLLHHARNGNAEEVRQLLETMARNEVIADINCKGRSKSNLGWTPLHLACYFGHRQVVQDLLKAGAEVNVLNDMGDTPLHRAAFTGRKELVMLLLEYNADTTIVNGSGQTAKEVTHAEEIRSMLEAVERTQQRKLEELLLAAAREGKTTELTALLNRPNPPDVNCSDQLGNTPLHCAAYRAHKQCALKLLRSGADPNLKNKNDQKPLDLAQGAEMKHILVGNKVIYKALKRYEGPLWKSSRFFGWRLFWVVLEHGVLSWYRKQPDAVHNIYRQGCKHLTQAVCTVKSTDSCLFFIKCFDDTIHGFRVPKNSLQQSREDWLEAIEEHSAYSTHYCSQDQLTDEEEEDTVSAADLKKSLEKAQSCQQRLDREISNFLKMIKECDMAKEMLPSFLQKVEVVSEASRETCVALTDCLNLFTKQEGVRNFKLEQEQEKNKILSEALETLATEHHELEQSLVKGSPPASILSEDEFYDALSDSESERSLSRLEAVTARSFEEEGEHLGSRKHRMSEEKDCGGGDALSNGIKKHRTSLPSPMFSRNDFSIWSILRKCIGMELSKITMPVIFNEPLSFLQRLTEYMEHTYLIHKASSLSDPVERMQCVAAFAVSAVASQWERTGKPFNPLLGETYELVRDDLGFRLISEQVSHHPPISAFHAEGLNNDFIFHGSIYPKLKFWGKSVEAEPKGTITLELLEHNEAYTWTNPTCCVHNIIVGKLWIEQYGNVEIINHKTGDKCVLNFKPCGLFGKELHKVEGYIQDKSKKKLCALYGKWTECLYSVDPATFDAYKKNDKKNTEEKKNSKQMSTSEELDEMPVPDSESVFIIPGSVLLWRIAPRPPNSAQMYNFTSFAMVLNEVDKDMESVIPKTDCRLRPDIRAMENGEIDQASEEKKRLEEKQRAARKNRSKSEEDWKTRWFHQGPNPYNGAQDWIYSGSYWDRNYFNLPDIY
modifications: 35S-labeled
For B1, the “fold increase of binding in the presence of m9” value is about 4 fold.
